Blank lines part the entries; values can stand above or below the binder they belong to. Numbered stars: 1 amine (or outer) side, 2 acyl side, 3 side chain; on linkers, the order of the positions; unused ones are H or OH. Bridge positions count the residues as written; N and C are the ends. Side chains are listed from the residue outwards. Ends that are not written are not given here. * marks the point of attachment. C20 diacid = O=C(O)CCCCCCCCCCCCCCCCCCC(=O)*; γGlu = O=C(O)[C@H](CCC(=O)[*:2])N[*:1]; AEEA = NCCOCCOCC(=O)O
Legend:
rat calcitonin receptor [1] = biological target: T1, rat calcitonin receptor (rat, UniProt P32214 25-516); assay: SPA competition with 125I-calcitonin, membranes of BHK cells with rat CTR (Assay VIII)
T1 construct: whole, on cells; Used as membranes prepared from BHK tk'ts 13 cells transiently transfected with the rat calcitonin receptor (Assay VIII); also called rCTR; rat calcitonin (a) receptor
T1 sequence (looked up): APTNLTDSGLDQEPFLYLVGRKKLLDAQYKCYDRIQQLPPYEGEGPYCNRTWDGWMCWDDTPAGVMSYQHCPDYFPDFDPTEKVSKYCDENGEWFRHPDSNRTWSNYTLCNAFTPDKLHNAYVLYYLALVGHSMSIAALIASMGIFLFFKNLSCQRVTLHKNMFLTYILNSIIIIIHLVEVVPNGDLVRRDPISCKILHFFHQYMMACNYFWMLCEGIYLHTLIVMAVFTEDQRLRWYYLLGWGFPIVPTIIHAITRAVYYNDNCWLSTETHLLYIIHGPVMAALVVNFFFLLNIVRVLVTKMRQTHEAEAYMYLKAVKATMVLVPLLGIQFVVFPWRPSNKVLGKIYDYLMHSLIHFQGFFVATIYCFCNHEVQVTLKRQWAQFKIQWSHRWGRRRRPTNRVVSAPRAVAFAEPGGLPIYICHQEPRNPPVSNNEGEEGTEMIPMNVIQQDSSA

[2] = biological target: T2, human calcitonin receptor (human, UniProt P30988 25-474); assay: IC50 on human CTR divided by IC50 on human amylin receptor (Assays VII/V)
T2 construct: whole, on cells; Used as membranes prepared from a BHK tk'ts 13 cell line stably transfected with the human calcitonin receptor (Assay VII); also called hCTR; hCT
T2 sequence (looked up): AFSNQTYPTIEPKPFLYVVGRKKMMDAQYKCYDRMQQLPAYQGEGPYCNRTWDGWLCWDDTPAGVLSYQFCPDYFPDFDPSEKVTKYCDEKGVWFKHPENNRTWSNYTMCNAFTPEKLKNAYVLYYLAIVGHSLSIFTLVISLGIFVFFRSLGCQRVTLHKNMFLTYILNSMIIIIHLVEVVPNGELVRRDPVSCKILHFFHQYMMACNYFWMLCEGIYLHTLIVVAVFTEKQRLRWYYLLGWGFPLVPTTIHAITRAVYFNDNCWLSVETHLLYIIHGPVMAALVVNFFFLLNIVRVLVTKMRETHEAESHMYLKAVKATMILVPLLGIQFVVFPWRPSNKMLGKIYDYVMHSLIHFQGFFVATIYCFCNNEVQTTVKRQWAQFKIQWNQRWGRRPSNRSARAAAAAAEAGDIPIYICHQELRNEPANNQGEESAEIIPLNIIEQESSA
Outline: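 IC₅₀ values were derived by one-site competition analysis of SPA counts. Cell membranes (35 ng/μL) with SPA beads were incubated with test compounds for 120 min at 25° C in Hepes buffer, pH 7.4, containing CaCl2, MgCl₂, OA and Tween20.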

rat calcitonin receptor [3] = biological target: T1, rat calcitonin receptor; assay: IC50 on rat CTR divided by IC50 on rat amylin receptor (Assays VIII/VI)
[4] = biological target: T3, rat amylin receptor (rat calcitonin receptor + rat RAMP 3) (rat, UniProt P32214 25-516; Q9JJ73 23-147); assay: SPA competition with 125I-rat amylin, membranes of BHK cells with rat CTR + rat RAMP3 (Assay VI)
T3 construct: whole, on cells; Used as membranes prepared from BHK tk'ts 13 cells transiently transfected with rat calcitonin receptor and rat RAMP 3 (Assay VI); also called rAmylin-R; rat amylin 3(a) receptor
T3 sequence (looked up) 1: T1 sequence (looked up)
T3 sequence (looked up) 2: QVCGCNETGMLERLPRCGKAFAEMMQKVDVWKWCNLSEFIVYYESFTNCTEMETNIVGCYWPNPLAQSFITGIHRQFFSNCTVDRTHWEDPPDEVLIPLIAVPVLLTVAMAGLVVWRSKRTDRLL

B1: N^ε1-[2-[2-[2-[[(4S)-4-carboxy-4-(19-carboxynonadecanoylamino)butanoyl]amino]ethoxy]ethoxy]acetyl]-[Arg17,Pro21,Pro27,Pro34,His35]-h-amylin (peptide)
peptide: K([AEEA-γGlu-C20 diacid])CNTATCATQRLANFLRHSSPNFGAIPSSTNVGPHTY-NH2
modifications: disulfide 2-7; N-terminus assumed
SMILES: CC[C@H](C)[C@H](NC(=O)[C@H](C)NC(=O)CNC(=O)[C@H](Cc1ccccc1)NC(=O)[C@H](CC(N)=O)NC(=O)[C@@H]1CCCN1C(=O)[C@H](CO)NC(=O)[C@H](CO)NC(=O)[C@H](Cc1c[nH]cn1)NC(=O)[C@H](CCCNC(=N)N)NC(=O)[C@H](CC(C)C)NC(=O)[C@H](Cc1ccccc1)NC(=O)[C@H](CC(N)=O)NC(=O)[C@H](C)NC(=O)[C@H](CC(C)C)NC(=O)[C@H](CCCNC(=N)N)NC(=O)[C@H](CCC(N)=O)NC(=O)[C@@H](NC(=O)[C@H](C)NC(=O)[C@@H]1CSSC[C@H](NC(=O)[C@@H](N)CCCCNC(=O)COCCOCCNC(=O)CC[C@H](NC(=O)CCCCCCCCCCCCCCCCCCC(=O)O)C(=O)O)C(=O)N[C@@H](CC(N)=O)C(=O)N[C@@H]([C@@H](C)O)C(=O)N[C@@H](C)C(=O)N[C@@H]([C@@H](C)O)C(=O)N1)[C@@H](C)O)C(=O)N1CCC[C@H]1C(=O)N[C@@H](CO)C(=O)N[C@@H](CO)C(=O)N[C@H](C(=O)N[C@@H](CC(N)=O)C(=O)N[C@H](C(=O)NCC(=O)N1CCC[C@H]1C(=O)N[C@@H](Cc1c[nH]cn1)C(=O)N[C@H](C(=O)N[C@@H](Cc1ccc(O)cc1)C(N)=O)[C@@H](C)O)C(C)C)[C@@H](C)O
notes: Analogue of human amylin; also called compound 58
IC50 (rat calcitonin receptor [1]): 10.3 nM
Ratio hCT/hAmylin binding [2]: 109
Ratio rCT/rAmylin binding (rat calcitonin receptor [3]): 76.6
IC50 [4]: 0.135 nM

B4: N^ε1-[2-[2-[2-[[(4S)-4-carboxy-4-(19-carboxynonadecanoylamino)butanoyl]amino]ethoxy]ethoxy]acetyl]-[Arg17,Pro21,Pro27,Pro34]-h-amylin (peptide)
peptide: K([AEEA-γGlu-C20 diacid])CNTATCATQRLANFLRHSSPNFGAIPSSTNVGPNTY-NH2
modifications: disulfide 2-7; N-terminus assumed
SMILES: CC[C@H](C)[C@H](NC(=O)[C@H](C)NC(=O)CNC(=O)[C@H](Cc1ccccc1)NC(=O)[C@H](CC(N)=O)NC(=O)[C@@H]1CCCN1C(=O)[C@H](CO)NC(=O)[C@H](CO)NC(=O)[C@H](Cc1c[nH]cn1)NC(=O)[C@H](CCCNC(=N)N)NC(=O)[C@H](CC(C)C)NC(=O)[C@H](Cc1ccccc1)NC(=O)[C@H](CC(N)=O)NC(=O)[C@H](C)NC(=O)[C@H](CC(C)C)NC(=O)[C@H](CCCNC(=N)N)NC(=O)[C@H](CCC(N)=O)NC(=O)[C@@H](NC(=O)[C@H](C)NC(=O)[C@@H]1CSSC[C@H](NC(=O)[C@@H](N)CCCCNC(=O)COCCOCCNC(=O)CC[C@H](NC(=O)CCCCCCCCCCCCCCCCCCC(=O)O)C(=O)O)C(=O)N[C@@H](CC(N)=O)C(=O)N[C@@H]([C@@H](C)O)C(=O)N[C@@H](C)C(=O)N[C@@H]([C@@H](C)O)C(=O)N1)[C@@H](C)O)C(=O)N1CCC[C@H]1C(=O)N[C@@H](CO)C(=O)N[C@@H](CO)C(=O)N[C@H](C(=O)N[C@@H](CC(N)=O)C(=O)N[C@H](C(=O)NCC(=O)N1CCC[C@H]1C(=O)N[C@@H](CC(N)=O)C(=O)N[C@H](C(=O)N[C@@H](Cc1ccc(O)cc1)C(N)=O)[C@@H](C)O)C(C)C)[C@@H](C)O
notes: Analogue of human amylin; also called compound 50
IC50 (rat calcitonin receptor [1]): 5.63 nM
Ratio hCT/hAmylin binding [2]: 36
Ratio rCT/rAmylin binding (rat calcitonin receptor [3]): 81.7
IC50 [4]: 0.069 nM

Results, then the binder that gave them:

IC50 (rat calcitonin receptor [1]): 60.4 nM
Ratio hCT/hAmylin binding [2]: 68.1
Ratio rCT/rAmylin binding (rat calcitonin receptor [3]): 36.2
IC50 [4]: 1.67 nM
B2: N^ε1-[2-[2-[2-[[(4S)-4-carboxy-4-(19-carboxynonadecanoylamino)butanoyl]amino]ethoxy]ethoxy]acetyl]-[His14,Arg17,Pro21,Pro27,His34]-h-amylin (peptide)
peptide: K([AEEA-γGlu-C20 diacid])CNTATCATQRLAHFLRHSSPNFGAIPSSTNVGHNTY-NH2
modifications: disulfide 2-7; N-terminus assumed
SMILES: CC[C@H](C)[C@H](NC(=O)[C@H](C)NC(=O)CNC(=O)[C@H](Cc1ccccc1)NC(=O)[C@H](CC(N)=O)NC(=O)[C@@H]1CCCN1C(=O)[C@H](CO)NC(=O)[C@H](CO)NC(=O)[C@H](Cc1c[nH]cn1)NC(=O)[C@H](CCCNC(=N)N)NC(=O)[C@H](CC(C)C)NC(=O)[C@H](Cc1ccccc1)NC(=O)[C@H](Cc1c[nH]cn1)NC(=O)[C@H](C)NC(=O)[C@H](CC(C)C)NC(=O)[C@H](CCCNC(=N)N)NC(=O)[C@H](CCC(N)=O)NC(=O)[C@@H](NC(=O)[C@H](C)NC(=O)[C@@H]1CSSC[C@H](NC(=O)[C@@H](N)CCCCNC(=O)COCCOCCNC(=O)CC[C@H](NC(=O)CCCCCCCCCCCCCCCCCCC(=O)O)C(=O)O)C(=O)N[C@@H](CC(N)=O)C(=O)N[C@@H]([C@@H](C)O)C(=O)N[C@@H](C)C(=O)N[C@@H]([C@@H](C)O)C(=O)N1)[C@@H](C)O)C(=O)N1CCC[C@H]1C(=O)N[C@@H](CO)C(=O)N[C@@H](CO)C(=O)N[C@H](C(=O)N[C@@H](CC(N)=O)C(=O)N[C@H](C(=O)NCC(=O)N[C@@H](Cc1c[nH]cn1)C(=O)N[C@@H](CC(N)=O)C(=O)N[C@H](C(=O)N[C@@H](Cc1ccc(O)cc1)C(N)=O)[C@@H](C)O)C(C)C)[C@@H](C)O
notes: Analogue of human amylin; also called compound 80

IC50 (rat calcitonin receptor [1]): 44.8 nM
Ratio hCT/hAmylin binding [2]: 32
Ratio rCT/rAmylin binding (rat calcitonin receptor [3]): 162
IC50 [4]: 0.276 nM
B3: N^ε1-[2-[2-[2-[[(4S)-4-carboxy-4-(19-carboxynonadecanoylamino)butanoyl]amino]ethoxy]ethoxy]acetyl]-[Gly14,Arg17,Pro21,Pro27,Pro31]-h-amylin (peptide)
peptide: K([AEEA-γGlu-C20 diacid])CNTATCATQRLAGFLRHSSPNFGAIPSSTPVGSNTY-NH2
modifications: disulfide 2-7; N-terminus assumed
SMILES: CC[C@H](C)[C@H](NC(=O)[C@H](C)NC(=O)CNC(=O)[C@H](Cc1ccccc1)NC(=O)[C@H](CC(N)=O)NC(=O)[C@@H]1CCCN1C(=O)[C@H](CO)NC(=O)[C@H](CO)NC(=O)[C@H](Cc1c[nH]cn1)NC(=O)[C@H](CCCNC(=N)N)NC(=O)[C@H](CC(C)C)NC(=O)[C@H](Cc1ccccc1)NC(=O)CNC(=O)[C@H](C)NC(=O)[C@H](CC(C)C)NC(=O)[C@H](CCCNC(=N)N)NC(=O)[C@H](CCC(N)=O)NC(=O)[C@@H](NC(=O)[C@H](C)NC(=O)[C@@H]1CSSC[C@H](NC(=O)[C@@H](N)CCCCNC(=O)COCCOCCNC(=O)CC[C@H](NC(=O)CCCCCCCCCCCCCCCCCCC(=O)O)C(=O)O)C(=O)N[C@@H](CC(N)=O)C(=O)N[C@@H]([C@@H](C)O)C(=O)N[C@@H](C)C(=O)N[C@@H]([C@@H](C)O)C(=O)N1)[C@@H](C)O)C(=O)N1CCC[C@H]1C(=O)N[C@@H](CO)C(=O)N[C@@H](CO)C(=O)N[C@H](C(=O)N1CCC[C@H]1C(=O)N[C@H](C(=O)NCC(=O)N[C@@H](CO)C(=O)N[C@@H](CC(N)=O)C(=O)N[C@H](C(=O)N[C@@H](Cc1ccc(O)cc1)C(N)=O)[C@@H](C)O)C(C)C)[C@@H](C)O
notes: Analogue of human amylin; also called compound 71

— US20140087995A1 (published 2014)
